The results in this text go back to the RNAGym collection of RNA variant scans (doi:10.1073/pnas.2313332121).

To fix the notation:
B1: TPR t1 (parent)
chain: GACCAAUCUGCCCUCAGAGCUCGAGAACAUCUUCGGAUGCAGAGGAGGCAGGCUUCGGUGGCGCGAUAGCGCCAACGUCCUCAACCUCCAAUGCAUCCCACCACAUGAUGAUGCCUGAAGAGCCUUGGUUUUUUG

Variants of B1 are the subject of this data set. Nature of the data set: polymerase ribozyme fitness, log enrichment relative to wild type (log ratio); higher = more active; in vitro selection for triplet polymerase activity. The method, boiled down:
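Mutant libraries for each subunit of a heterodimeric triplet polymerase ribozyme were made by PCR and then transcribed. Each library underwent one round of in vitro selection in triplicate: annealing with a biotinylated primer, the partner subunit and triplets, frozen incubation at −7 °C, gel excision of extended constructs, streptavidin-bead capture and RT-PCR. Input and output libraries were Illumina-sequenced, and only genotypes with ≥10 input reads and ≥1 read per output were kept. Fitness is the logarithm, base 2, of genotype enrichment over wild-type enrichment, computed from inverse-variance-weighted replicate averages.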
Turning to C40G C49G G61U U87G U129A, the “polymerase ribozyme fitness (log ratio)” value was -2.49.

In the case of C40A A84G A95C U125G U126G U129A, the “polymerase ribozyme fitness (log ratio)” value was -4.98.

Consider C40G C101U, for which the “polymerase ribozyme fitness (log ratio)” value was -1.22.

A41U G57A G77A: the “polymerase ribozyme fitness (log ratio)” value is -1.68.

With C40G G45A A46C G51C G58A G63C G110A G113U G117C, the “polymerase ribozyme fitness (log ratio)” value is -7.24.

Turning to G39U G51A A118G, the “polymerase ribozyme fitness (log ratio)” value is -4.52.

Regarding C40A A41U G69U G135C, the “polymerase ribozyme fitness (log ratio)” value was -0.488.

On to C40G C62A, for which the “polymerase ribozyme fitness (log ratio)” value is -1.9.

Consider A41C A46G, for which the “polymerase ribozyme fitness (log ratio)” value was -1.13.

As for C40U A74C G120A U131C, the “polymerase ribozyme fitness (log ratio)” value was 0.155.

Consider G39U C62A C70U, for which the “polymerase ribozyme fitness (log ratio)” value is -2.07.

Turning to C40G C49U A74U U78A, the “polymerase ribozyme fitness (log ratio)” value is -3.07.

Turning to A41G G69C, the “polymerase ribozyme fitness (log ratio)” value is -1.9.

In the case of C40G C56G C70A, the “polymerase ribozyme fitness (log ratio)” value was -4.24.

For G39C U54G C70A, the “polymerase ribozyme fitness (log ratio)” value was -3.74.

Regarding A41G G71C U116G, the “polymerase ribozyme fitness (log ratio)” value was -3.99.

Consider C40A C85A, for which the “polymerase ribozyme fitness (log ratio)” value was -1.95.

As to G39C C72U, the “polymerase ribozyme fitness (log ratio)” value is -1.18.

For A41G G47U G120A, the “polymerase ribozyme fitness (log ratio)” value is -3.73.

C40A G77A A84U C94U U106A: the “polymerase ribozyme fitness (log ratio)” value is -2.81.

As for A41U C124G U129A, the “polymerase ribozyme fitness (log ratio)” value was -0.389.

For the variant A41U G45C C53G C79U C97U, the “polymerase ribozyme fitness (log ratio)” value was -6.18.

Consider A41G, for which the “polymerase ribozyme fitness (log ratio)” value was -0.0621.

For A41C, the “polymerase ribozyme fitness (log ratio)” value was -0.956.

Consider A41U, for which the “polymerase ribozyme fitness (log ratio)” value is -1.14.

Turning to C40U G63C C98U A100U C101U, the “polymerase ribozyme fitness (log ratio)” value was -3.3.

On to C40U C53U A75G C82U, for which the “polymerase ribozyme fitness (log ratio)” value is -0.592.

Consider C40G G47U G93U U129C U133G, for which the “polymerase ribozyme fitness (log ratio)” value was -2.76.

With A41G A111C, the “polymerase ribozyme fitness (log ratio)” value is -0.47.

A41C G42C G63U G127C: the “polymerase ribozyme fitness (log ratio)” value is -4.81.

For the variant C40A A74G U130C, the “polymerase ribozyme fitness (log ratio)” value was -0.804.

Regarding G39U C94U G113C A118C, the “polymerase ribozyme fitness (log ratio)” value is -3.27.

As for A41C C49A C72U, the “polymerase ribozyme fitness (log ratio)” value was -1.51.

Regarding C40G C64U, the “polymerase ribozyme fitness (log ratio)” value was -1.16.

With C40G G60U A68G, the “polymerase ribozyme fitness (log ratio)” value was -4.86.

As to A41U G45C G60A C62U, the “polymerase ribozyme fitness (log ratio)” value is -2.39.

On to G39U C49U C97A C124A G127A, for which the “polymerase ribozyme fitness (log ratio)” value is -5.83.

Turning to C40A G48A U55A G60A A95G G120C, the “polymerase ribozyme fitness (log ratio)” value is -1.53.

Take A41U C123G: the “polymerase ribozyme fitness (log ratio)” value amounted to 0.0535.

In the case of A41C G63C A105G, the “polymerase ribozyme fitness (log ratio)” value was -5.05.

A41G G117U: the “polymerase ribozyme fitness (log ratio)” value was -2.99.

With A41U C64U C73U U106C, the “polymerase ribozyme fitness (log ratio)” value is -1.79.

For C40G G45U C88G U92A, the “polymerase ribozyme fitness (log ratio)” value was -4.08.

Consider G39U C124A, for which the “polymerase ribozyme fitness (log ratio)” value was determined as 0.161.

As to C40A G48A C86A, the “polymerase ribozyme fitness (log ratio)” value is -2.18.

With A41C C70G U78C, the “polymerase ribozyme fitness (log ratio)” value is -5.64.

On to A41C G117U C123A C124G, for which the “polymerase ribozyme fitness (log ratio)” value is -3.97.

Turning to C40U G71U C115U U125G U133C, the “polymerase ribozyme fitness (log ratio)” value is -0.893.

On to C40G C72G U92A G113U, for which the “polymerase ribozyme fitness (log ratio)” value is -4.69.

For A41U G42C A95C, the “polymerase ribozyme fitness (log ratio)” value is -4.1.

With A41C G51A C114G, the “polymerase ribozyme fitness (log ratio)” value is -6.23.

C40U G42A C101G C114A: the “polymerase ribozyme fitness (log ratio)” value is -5.28.

Regarding C40U A41C C76U U112A G122A, the “polymerase ribozyme fitness (log ratio)” value was -3.19.

For C40U G52U C88A, the “polymerase ribozyme fitness (log ratio)” value is -1.07.

In the case of A41G C56A A75U G117U, the “polymerase ribozyme fitness (log ratio)” value is -3.99.

As to C40U C101U, the “polymerase ribozyme fitness (log ratio)” value turned out to be 0.317.

Take C40G C88U G122A: the “polymerase ribozyme fitness (log ratio)” value is -2.03.

On to A41C G44U U87C, for which the “polymerase ribozyme fitness (log ratio)” value was -1.33.

For C40G C80U G122U, the “polymerase ribozyme fitness (log ratio)” value is -3.37.

Regarding A41G C49G G58U C79A, the “polymerase ribozyme fitness (log ratio)” value was -6.14.

A41G A83U: the “polymerase ribozyme fitness (log ratio)” value was -0.499.

In the case of C40G A43C A111C A119G, the “polymerase ribozyme fitness (log ratio)” value was -4.45.

In the case of C40U C53A G113C, the “polymerase ribozyme fitness (log ratio)” value is -2.73.

With C40U U87A, the “polymerase ribozyme fitness (log ratio)” value was -0.311.

Regarding C40A A41C C49A C70U U92A C102G U109A, the “polymerase ribozyme fitness (log ratio)” value is -6.25.

As to A41C G113C, the “polymerase ribozyme fitness (log ratio)” value is -2.86.

Consider C40G G60U, for which the “polymerase ribozyme fitness (log ratio)” value is -0.737.

On to A41G G51A A90C, for which the “polymerase ribozyme fitness (log ratio)” value was -5.76.

Turning to C40G G122U, the “polymerase ribozyme fitness (log ratio)” value is -0.991.

On to A41U C53G C62G A84U U112A, for which the “polymerase ribozyme fitness (log ratio)” value was -4.47.

Consider C40A C88A G117A, for which the “polymerase ribozyme fitness (log ratio)” value was -3.85.

Regarding A41U G45A U55C G71A, the “polymerase ribozyme fitness (log ratio)” value was -3.

On to C40A G47A, for which the “polymerase ribozyme fitness (log ratio)” value is -3.03.

For G39U A50U G60U G61A C79A, the “polymerase ribozyme fitness (log ratio)” value was -3.64.

Take G39U C72G C82G: the “polymerase ribozyme fitness (log ratio)” value was -2.35.

On to A41U C64U U87C U106C C123A, for which the “polymerase ribozyme fitness (log ratio)” value was -1.38.

With G39U A68G C123U U133A, the “polymerase ribozyme fitness (log ratio)” value is -2.96.

C40A C64U C80U: the “polymerase ribozyme fitness (log ratio)” value was -2.24.

Regarding A41C A46C C72G C97U U133A, the “polymerase ribozyme fitness (log ratio)” value is -3.71.

Consider C40G G110U, for which the “polymerase ribozyme fitness (log ratio)” value is -1.7.

Turning to C40G C114A, the “polymerase ribozyme fitness (log ratio)” value was -2.35.

Take A41C C76U C89U A111C: the “polymerase ribozyme fitness (log ratio)” value is -1.22.

With A41U C56A C72U U92G, the “polymerase ribozyme fitness (log ratio)” value is -1.3.

Consider G39U C86G C104A, for which the “polymerase ribozyme fitness (log ratio)” value was -4.01.
